The values that follow come from patent publication US20260028608A1.

Like-named read-outs stand apart in the source and are kept apart here.

What all share (experiment): cell-based or functional assay
The target of experiment [1] is Humira (Abbvie), human IgG1.
Experiment [2] concerns the target XGEVA (Amgen), human IgG2.
For experiment [3], the target named is human IgG3 from Sigma (15654 Lot #SLBW0899) (human).
For experiment [4], the target named is human IgG4 from Abcam (ab90286 Lot #GR3180469) (human).
Experiment [5] concerns the target Humira (Abbvie), human IgG1. This is another data set of the same source.
Experiment [6] concerns the target XGEVA (Amgen), human IgG2. The source holds these as a separate data set.

On to “IdeS (Immunoglobulin G-degrading enzyme of S. pyogenes), control polypeptide pCART124”, for which, in experiment [1], the Approximate EC50 value, i.e. equal amounts of scIgG and F(ab')2 (SDS-PAGE) was 0.12 µg/mL; the Conc. of enzyme for cleavage of 1st IgG1 heavy chain, IgG to scIgG (SDS-PAGE) worked out at 4.5 ng/mL; the Conc. of enzyme for cleavage of 2nd IgG1 heavy chain, scIgG to F(ab')2 (SDS-PAGE) worked out at 400 ng/mL; the IgG1 EC50 F(ab')2 (SDS-PAGE, visual estimate) is 0.08 µg/mL. Also, in experiment [1], the IgG1 EC50 scIgG (SDS-PAGE, visual estimate) was 0.001 µg/mL and the fold of EC50 F(ab')2 for IgG1, IdeS against N240 amounted to 5 fold. Besides, in experiment [2], the Conc. of enzyme for cleavage of 1st IgG2 heavy chain, IgG to scIgG (SDS-PAGE) came out at 40 ng/mL; the Conc. of enzyme for cleavage of 2nd IgG2 heavy chain, scIgG to F(ab)2 (SDS-PAGE) came out at 1100 ng/mL; the IgG2 EC50 F(ab')2 (SDS-PAGE, visual estimate) was 0.12 µg/mL; the IgG2 EC50 scIgG (SDS-PAGE, visual estimate) is 0.003 µg/mL. In experiment [3], the IgG3 EC50 F(ab')2 (SDS-PAGE, visual estimate) is 0.015 µg/mL and the IgG3 EC50 scIgG (SDS-PAGE, visual estimate) was 0.0022 µg/mL. In experiment [4], the IgG4 EC50 F(ab')2 (SDS-PAGE, visual estimate) is 0.18 µg/mL and the IgG4 EC50 scIgG (SDS-PAGE, visual estimate) is 0.002 µg/mL. In experiment [5], the Conc. of enzyme for cleavage of 1st IgG1 heavy chain, IgG to scIgG (SDS-PAGE) is 1.5 ng/mL and the Conc. of enzyme for cleavage of 2nd IgG1 heavy chain, scIgG to F(ab')2 (SDS-PAGE) was found to be 120 ng/mL. Besides, in experiment [6], the Conc. of enzyme for cleavage of 1st IgG2 heavy chain, IgG to scIgG (SDS-PAGE) amounted to 10 ng/mL and the Conc. of enzyme for cleavage of 2nd IgG2 heavy chain, scIgG to F(ab)2 (SDS-PAGE) stood at 400 ng/mL.
